The source of these data is paper PMC8024709, “DNA ligase I fidelity mediates the mutagenic ligation of pol β oxidized and mismatch nucleotide insertion products in base excision repair”.

In general, Kd refers to the concentration at which binding is half-saturated.

Series [1] addresses LIG1 E346A/E592A (EE/AA) low-fidelity mutant (Homo sapiens, UniProt P18858 1-919, E346A;E592A). Briefly: BLI; no Mg2+ or ATP listed in kinetics buffer; BLI (Octet QKe, streptavidin sensors, 40 nM DNA loaded, LIG1 10-2430 nM): Hepes pH 7.4, 200 mM NaCl, 0.5% BSA, 0.05% Tween 20, 20 °C; 1:1 binding model. The note with it: protein: recombinant; tags: His-tag; label: 3'-biotin on downstream strand (S2); 1-nt gap opposite template T; 34-nt template (S7 equals S4 reversed to 5'-3') with 17-nt upstream and 16-nt downstream strands; outer ends blunt. (In general: Biolayer interferometry detects binding as a change in optical thickness at a sensor tip.)

The target of series [2] is DNA ligase I (LIG1) wild-type (Homo sapiens, UniProt P18858 1-919). The description is as above. The note with it: protein: recombinant; tags: His-tag; label: 3'-biotin on downstream strand (S2); 1-nt gap opposite template T; 34-nt template (S7 equals S4 reversed to 5'-3') with 17-nt upstream and 16-nt downstream strands; outer ends blunt.
Chain of DNA ligase I (LIG1) wild-type (P18858 whole entry): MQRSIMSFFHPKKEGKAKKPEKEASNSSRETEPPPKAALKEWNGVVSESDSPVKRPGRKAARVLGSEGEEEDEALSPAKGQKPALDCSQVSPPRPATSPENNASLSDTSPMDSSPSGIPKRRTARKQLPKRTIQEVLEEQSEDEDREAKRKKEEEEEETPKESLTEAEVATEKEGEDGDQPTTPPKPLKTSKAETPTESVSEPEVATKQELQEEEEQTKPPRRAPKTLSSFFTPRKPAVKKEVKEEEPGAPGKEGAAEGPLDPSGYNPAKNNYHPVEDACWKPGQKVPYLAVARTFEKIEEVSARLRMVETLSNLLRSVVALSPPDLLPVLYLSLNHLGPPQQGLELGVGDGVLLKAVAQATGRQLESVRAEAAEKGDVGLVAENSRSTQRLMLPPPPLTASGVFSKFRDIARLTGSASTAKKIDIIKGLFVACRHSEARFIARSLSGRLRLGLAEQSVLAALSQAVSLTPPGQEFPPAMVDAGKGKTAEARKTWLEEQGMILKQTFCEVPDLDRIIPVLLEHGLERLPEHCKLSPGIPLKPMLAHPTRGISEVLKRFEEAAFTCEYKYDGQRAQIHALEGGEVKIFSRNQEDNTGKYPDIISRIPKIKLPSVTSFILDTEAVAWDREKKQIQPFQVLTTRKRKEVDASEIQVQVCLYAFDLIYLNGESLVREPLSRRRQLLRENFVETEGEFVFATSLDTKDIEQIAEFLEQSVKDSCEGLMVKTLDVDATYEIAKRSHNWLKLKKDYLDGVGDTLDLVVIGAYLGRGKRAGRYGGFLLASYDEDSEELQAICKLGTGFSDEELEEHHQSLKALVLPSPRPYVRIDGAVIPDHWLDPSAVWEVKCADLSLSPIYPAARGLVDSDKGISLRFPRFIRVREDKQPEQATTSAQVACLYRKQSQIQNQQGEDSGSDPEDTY

Chain of LIG1 E346A/E592A (EE/AA) low-fidelity mutant (P18858 whole entry E346A/E592A): as the sequence (P18858 whole entry) above, with E346A, E592A counted along it

B1: one-nucleotide-gap DNA, template T (BLI) (dsDNA)
DNA 1: CATGGGCGGCATGAACC
DNA 2: GAGGCCCATCCTCACC
DNA 3: GGTGAGGATGGGCCTCTGGTTCATGCCGCCCATG
As to B1, the Kd was approximately 20 nM in series [1] and approximately 83 nM in series [2].
